# Laboratory results reported in US20200071412A1 (ROCKEFELLER UNIVERSITY, published 2020).
# T1: human FcγRIIa-H131 (human, UniProt P12318 34-217, limits assumed)
# T1 construct: also called hCD32a/FcγRIIa-H131
# T1 sequence (looked up): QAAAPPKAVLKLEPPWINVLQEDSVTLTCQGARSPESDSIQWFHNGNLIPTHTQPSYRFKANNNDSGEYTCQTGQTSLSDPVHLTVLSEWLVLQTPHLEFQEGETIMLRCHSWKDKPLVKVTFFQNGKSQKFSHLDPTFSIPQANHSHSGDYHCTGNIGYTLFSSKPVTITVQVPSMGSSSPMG
# Experiments:
# [1] = target: human FcγRIIa-H131 (human) (UniProt P12318); test: Fc variant affinity for Fcγ receptor; method not stated
# [2] = target: human FcγRIIa-R131 (human) (UniProt P12318); test: as above
# human FcγRIIb (human) = human FcγRIIb (human) (UniProt P31994); test: as above
# Sequence of human FcγRIIb (human) (P31994 43-217 limits assumed): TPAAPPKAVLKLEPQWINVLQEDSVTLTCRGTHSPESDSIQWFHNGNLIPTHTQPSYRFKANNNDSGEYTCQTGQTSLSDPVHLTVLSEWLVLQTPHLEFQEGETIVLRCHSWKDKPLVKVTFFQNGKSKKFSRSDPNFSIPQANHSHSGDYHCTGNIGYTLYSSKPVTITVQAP
# human FcγRIIa-H131 [3] = target: T1, human FcγRIIa-H131; test: BLI (FORTEBIO Octet), %Rmax; supernatant 5F11-45-V9-DT-sup; receptor hCD32a/FcγRIIa-H131
# human FcγRIIa-H131 [4] = target: T1, human FcγRIIa-H131; test: BLI (FORTEBIO Octet), %Rmax; supernatant 12D6-24-V9-DT-sup; receptor hCD32a/FcγRIIa-H131
Kd [1] [nM],Kd [2] [nM],Kd (human FcγRIIb (human)) [nM],Molecule,also measured
530,850,3900,Fc sequence variant IgG1f (antibody with human IgG1f constant domain),–
–,2,–,Fc sequence variant SELF (antibody),–
–,–,950,Fc sequence variant P238D (antibody),–
520,22,98,Fc sequence variant SE (antibody),–
–,–,–,"5F11-45-V9-DT-sup (antibody, human IgG1, kappa, Tested as a supernatant of antibody producing cells; also called 5F11-45 V9 D270T) heavy chain: QVQLVQSGAEVKKPGSSVKVSCKASGYTFTDLSMHWVRQAPGQGLEWMGYITPSSGYTAYNQKFKGKTTLTADKSTSTAYMELSSLRSEDTAVYYCARLILQRGAYWGQGTLVTVSSASTKGPSVFPLAPSSKSTSGGTAALGCLVKDYFPEPVTVSWNSGALTSGVHTFPAVLQSSGLYSLSSVVTVPSSSLGTQTYICNVNHKPSNTKVDKRVEPKSCDKTHTCPPCPAPELLGDDSVFLFPPKPKDTLMISRTPEVTCVVVDVSHETGEVKFNWYVDGVEVHNAKTKPREEQYNSTYRVVSVLTVLHQDWLNGKEYKCKVSNKALPRPIEKTISKAKGQPREPQVYTLPPSREEMTKNQVSLTCLVKGFYPSDIAVEWESNGQPENNYKTTPPVLDSDGSFFLYSKLTVDKSRWQQGNVFSCSVMHEALHNHYTQKSLSLSPG light chain: DIVLTQSPDSLAVSLGERATINCRASKNVDSYGNSFMHWYQQKPGQPPKLLIYRASNLESGVPDRFSGSGSGTDFTLTISSLQAEDVAVYYCQQSNEDPLTFGQGTKLEIKRTVAAPSVFIFPPSDEQLKSGTASVVCLLNNFYPREAKVQWKVDNALQSGNSQESVTEQDSKDSTYSLSSTLTLSKADYEKHKVYACEVTHQGLSSPVTKSFNRGEC",binding result (human FcγRIIa-H131 [3]): no binding (tested: 10 µM)
–,–,–,"12D6-24-V9-DT-sup (antibody, Tested as a supernatant of antibody producing cells; also called 12D6-24 V9 D270T; copies: 2 + 2) heavy: QVQLVQSGAEVKKPGASVKVSCKASGYTFTGYNMNWVRQAPGQGLEWMGNIDPYYGNTNYNQKFKGRVTMTTDTSTSTAYMELRSLRSDDTAVYYCARLGLQLYALDYWGQGTTVTVSSASTKGPSVFPLAPSSKSTSGGTAALGCLVKDYFPEPVTVSWNSGALTSGVHTFPAVLQSSGLYSLSSVVTVPSSSLGTQTYICNVNHKPSNTKVDKRVEPKSCDKTHTCPPCPAPELLGDDSVFLFPPKPKDTLMISRTPEVTCVVVDVSHETGEVKFNWYVDGVEVHNAKTKPREEQYNSTYRVVSVLTVLHQDWLNGKEYKCKVSNKALPRPIEKTISKAKGQPREPQVYTLPPSREEMTKNQVSLTCLVKGFYPSDIAVEWESNGQPENNYKTTPPVLDSDGSFFLYSKLTVDKSRWQQGNVFSCSVMHEALHNHYTQKSLSLSPG light: DIVMTQTPLSLPVTPGEPASISCRSSQSLVHSNANTYLHWYLQKPGQSPQLLIYKLTNRFFGVPDRFSGSGSGTDFTLKISRVEAEDVGVYYCSQSIHVPWTFGGGTKVEIKRTVAAPSVFIFPPSDEQLKSGTASVVCLLNNFYPREAKVQWKVDNALQSGNSQESVTEQDSKDSTYSLSSTLTLSKADYEKHKVYACEVTHQGLSSPVTKSFNRGEC",binding result (human FcγRIIa-H131 [4]): no binding (tested: 10 µM)
